Target: ARΔ423-448 (Flag-AR with residues 423 to 448 removed) (human) (UniProt P10275)
Experiment: proximity ligation

reduction of the interaction against WT AR (PLA): 40%
Substance: Myc-RAP74-CTD (from UniProt P35269 450-517) (domain or fragment)
